The text below walks through data of patent US20090304667A1 (POSTECH ACADEMY INDUSTRY, published 2009).

In this experiment the target is T1, PLD2^wt (Homo sapiens, UniProt O14939 1-933).
T1 construct: Ectopically expressed in COS7 or HEK293 cells from a mammalian expression vector; used as cell lysate; also called phospholipase D2
As to the kind of experiment: GST pull-down with PLD2-expressing cell lysates.

T1 sequence (O14939 whole entry R172C/T577I): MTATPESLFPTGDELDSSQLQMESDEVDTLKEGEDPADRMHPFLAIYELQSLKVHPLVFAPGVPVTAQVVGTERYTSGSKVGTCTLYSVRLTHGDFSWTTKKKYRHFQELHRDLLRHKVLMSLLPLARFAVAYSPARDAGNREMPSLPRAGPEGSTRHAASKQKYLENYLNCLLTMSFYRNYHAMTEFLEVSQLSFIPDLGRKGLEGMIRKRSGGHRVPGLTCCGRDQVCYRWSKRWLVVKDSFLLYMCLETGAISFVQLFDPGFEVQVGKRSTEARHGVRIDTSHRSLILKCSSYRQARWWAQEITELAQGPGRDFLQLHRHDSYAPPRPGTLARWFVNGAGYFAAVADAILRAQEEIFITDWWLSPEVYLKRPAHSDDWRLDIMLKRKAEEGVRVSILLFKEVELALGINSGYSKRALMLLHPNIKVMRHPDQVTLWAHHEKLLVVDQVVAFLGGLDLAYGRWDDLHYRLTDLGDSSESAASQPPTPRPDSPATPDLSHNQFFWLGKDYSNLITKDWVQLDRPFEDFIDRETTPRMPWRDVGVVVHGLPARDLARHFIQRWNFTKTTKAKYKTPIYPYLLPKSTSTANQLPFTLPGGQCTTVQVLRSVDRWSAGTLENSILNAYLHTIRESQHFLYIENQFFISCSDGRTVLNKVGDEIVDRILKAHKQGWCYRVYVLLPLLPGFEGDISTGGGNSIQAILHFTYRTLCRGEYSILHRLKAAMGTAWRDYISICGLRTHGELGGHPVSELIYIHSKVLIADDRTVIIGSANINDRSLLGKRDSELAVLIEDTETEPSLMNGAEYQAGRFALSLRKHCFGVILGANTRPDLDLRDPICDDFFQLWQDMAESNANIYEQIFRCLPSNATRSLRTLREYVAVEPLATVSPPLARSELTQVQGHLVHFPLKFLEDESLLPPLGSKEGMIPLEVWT

B1: GST-R-Ras (other, UniProt P10301 1-218, looked up)
chain: MSSGAASGTGRGRPRGGGPGPGDPPPSETHKLVVVGGGGVGKSALTIQFIQSYFVSDYDPTIEDSYTKICSVDGIPARLDILDTAGQEEFGAMREQYMRAGHGFLLVFAINDRQSFNEVGKLFTQILRVKDRDDFPVVLVGNKADLESQRQVPRSEASAFGASHHVAYFEASAKLRLNVDEAFEQLVRAVRKYQEQELPPSPPSAPRKKGGGCPCVLL
notes: Expressed in E. coli, on glutathione-Sepharose beads; also called GST-Ras; not shown: GST tag
In the case of B1, the binding result was “no binding”.
